Results reported in publication PMC8567388.

How the values were obtained:
[1] = molecular target: Peptide ligand: GluN2B (TAMRA-NNG-…); assay: fluorescence polarisation
[2] = molecular target: Peptide ligand: Stargazin (TAMRA-NNG-…); assay: fluorescence polarisation

PSD-95 PDZ1 6xHis (domain or fragment)
Kd [1]: 12.4 µM | Kd [2]: 27.3 µM

PSD-95 PDZ1-2 6xHis (domain or fragment)
Kd [1]: 1.9 µM
